Key:
[1] = Shuffled variant libraries: 14CO2 capturing assay in 384-well format; details: decarboxylation activity (carbon dioxide released) compared with unmutated backbone protein SEQ ID NO 133 (DDEC0201)
[2] = Saturation mutagenesis of SEQ ID NO:109: dicamba decarboxylation activity of point mutants (carbon dioxide released); details: decarboxylation activity (carbon dioxide released) of point mutant compared with unmutated backbone protein; backbone SEQ ID NO: 109

Molecule	Fold Activity [1]	Fold Activity [2]
253 (protein, Dicamba decarboxylase variant) MAQGKVALEEHFAIPETLQDSAGFVPGDYWKELQHRLLDIQDTRLKLMDAHGIETMILSLAAPAVQAIPDRVKAIEIARRANDFLAEECAKRPDRFLAFAALPLQDPDAATEELQRCVNDLGFVGALVNGFSQEGDGQTPLYYDLPQYRPFWGEVEKLDVPFYLHPRNPLPQDSRIYDGHPWLLGPTWAFAQETAVHALRLMASGLFDEHPRLNIILGHMGEGLPYMMYRIDHRIAWVKLPPRYPAKRRFMDYFNENFHITTSGNFRTQTLIDAILEIGADRILFSTDWPFENIDHAADWFNATSIAEADRVKIGRTNARRLFKLDGD	1.7	0.9
254 (protein, Dicamba decarboxylase variant) MAQGKVALEEHFAIPETLQDSAGFVPGDYWKELQHRLLDIQDTRLKLMDAHGIETMILSLAAPAVQAIPDRRQAIEIARRANDFLAEECAKRPDRFLAFAALPLQDPDAASEELQRCVNDLGFVGALVNGFSVEGDGQTPLYYDLPQYRPFWGEVEKLDVPFYLHPRNPLPQDSRIYDGHPWLLGPTWAFAQETAVHALRLMASGLFDEHPRLNIILGHLGEGLPYMMYRIDHRIAWVHPPPRYPAKRRFMDYFNENFHITTSGNFRTQTLIDAILEIGADRILFSTDWPFENIDHAADWFNATSIAEADRVKIGRTNARRLFKLDGA	1.2	1.9
255 (protein, Dicamba decarboxylase variant) MAQGKVALEEHFAIPETLQDSAGFVPGDYWKELQHRLLDIQDTRLRLMDAHGIETMILSLAAVGVQAIPDRRKAIEIARRANDFLAEECAKRPDRFLAFAALPLQDPDAATEELQRCVNDLGFVGALVNGFSQEGDGQTPLYYDLPQYRPFWGEVEKLDVPFYLHPRNPLPQDSRIYDGHPWLLGPTWAFAQETAVHALRLMASGLFDEHPRLNIILGHMGEGLPYMMYRIDHRIAWVHPPPRYPAKRRSMDYFNENFHITTSGNFRTQTLIDAILEIGADRILFSTDWPFENIDHAADWFNATSIAEADRVKIGRTNARRLFKLDGD	1.0	1.1
256 (protein, Dicamba decarboxylase variant) MAQGKVALEEHFAIPETLQDSAGFVPGDYWKELQHRLLDIQDTRLNLMDAHGIETMILSLAAPAVQAIPDRRKAIEIARRANDFLAEECAKRPDRFLAFAALPLQDPDAATEELQRCVNDLGFVGALVNGFSQEGDGQTPLYYDLPQYRPFWGEVEKLDVPFYLHPRNPLPQDSRIYDGHPWLLGPTWAFAQETAVHALRLMASGLFDEHPRLNIILGHMGEGLPYMMYRIDHRIAWVHEPPRYPAKRRFMDYFNENFHITTSGNFRTQTLIDAILEIGADRILFSTDWPFENIDHAADWFNATSIAEADRVKIGRTNARRLFKLDVD	1.0	1.7
257 (protein, Dicamba decarboxylase variant) MAQGKVALEEHFAIPETLQDSAGFVPGDYWKELQHRLLDIQDTRLKLMDAHGIETMILSLAAPAVQAIPDRRKAIEIARRANDFLAEECAKRPDRFLAFAALPLQDVDAATEELQRCVNDLGFVGALVNGFSVEGDGQTPLYYDLPQYRPFWGEVEKLDVPFYLHPRNPLPQDSRIYDGHPWLLGPTWAFAQETAVHALRLMASGLFDEHPRLNIILGHMGEGLPYMMYRIDHRIAWVHEPPRYPAKRRFMDYFLENFHITTSGNFRTQTLIDAILEIGADRILFSTDWPFENIDHAADWFNATSIAEADRVKIGRTNARRLFKLDLD	1.6	2.4

— US20160053277A1, “Compositions Having Dicamba Decarboxylase Activity and Methods of Use” (PIONEER HI-BRED INTERNATIONAL, INC., priority 2013, published 2016)
